Test results: patent publication US10520496B2 (priority 2015, dated 2019)
Several values for one entry are separate records, joined by “and”; a condition that tells them apart may be missing. Identical values can stand only once. Entries after “also recorded” stand apart in the source; their conditions may differ. Like-named read-outs stand apart in the source and are kept apart here. *: point of attachment. 5FAM = O=C1OC2(c3ccc(O)cc3Oc3cc(O)ccc32)c2ccc(C(=O)*)cc21; DABCYL = quencher, CN(C)c1ccc(/N=N/c2ccc(C(=O)*)cc2)cc1

Key:
[1] = tested on: Neutral Protease; format: biochemical, Clostridium histolyticum; details: for Km / Vmax: neutral protease 20 μg/ml, substrate 5-80 μM, Example 2; for effect of zinc on measured RFU (enzymatic cleavage): zinc salt 16.7 μM, presence or absence of CaCl2 4.14 mM, vs control and NaSO4
Text: GraphPad Prism (GraphPad Software 6.0, La Jolla, Calif., USA) was used for analyzing the data and generating the graphs. Both non-linear Michaelis-Menten and linear Lineweaver-Burk plots were used for the enzyme kinetics study. Kinetic parameters Vmax and Km were obtained from the Michaelis-Menten model by plotting the reaction velocity at different concentration of peptide substrate. Non-linear Michaelis-Menten curves for the enzymatic reaction in the presence and absence of CaCl2 were compared using Prism. All samples were run in duplicate, and results are reported as average±standard error of the mean (SEM). One-way or two-way ANOVA analysis followed by Tukey's multiple comparisons test was used to conduct multiple variable comparisons when applicable. Differences in data were considered significant when P values were less than 0.05.

[2] = tested on: Collagenase I/II; format: biochemical; details: general statement
Method: The cleavage sites produced by various proteases were analyzed using the known sequence of the novel protease substrate 5FAMcollagenPPT. As provided herein, the cleavage sites were determined based on the results of mass spectrometric analysis of the protease substrate 5FAMcollagenPPT peptide fragments obtained from an enzymatic reaction with various enzymes tested.
Cleavage of the novel fluorogenic protease substrate 5FAMcollagenPPT was further investigated using various proteases. After cleavage of the substrate by proteases, the resulting cleavage products of the protease substrate were specifically analyzed using matrix-assisted laser desorption/ionization (MALDI) mass spectrometry.
Next, the specific sequences of the protease substrate 5FAMcollagenPPT cleavage products were analyzed using MALDI. Briefly, each protease was incubated for 15 minutes with the protease substrate at 22° C. Buffer conditions and concentrations of the protease substrates and proteases were as described in Example 2. The uncleaved 5FAMcollagenPPT substrate has a molecular weight of 1669.8 Daltons. The molecular weights of the resulting products of the protease substrate after cleavage by various proteases are shown in Table 8 and FIG. 13.

[3] = water
[4] = target: Collagenase I (Hathewaya histolytica, UniProt Q9X721); format: biochemical, Clostridium histolyticum; details: for Km / Vmax: collagenase I 0.45 μg/ml; for effect of zinc on measured RFU (enzymatic cleavage): zinc salt 16.7 μM, presence or absence of CaCl2 4.14 mM, vs control and NaSO4
Chain of Collagenase I (Q9X721 111-1118): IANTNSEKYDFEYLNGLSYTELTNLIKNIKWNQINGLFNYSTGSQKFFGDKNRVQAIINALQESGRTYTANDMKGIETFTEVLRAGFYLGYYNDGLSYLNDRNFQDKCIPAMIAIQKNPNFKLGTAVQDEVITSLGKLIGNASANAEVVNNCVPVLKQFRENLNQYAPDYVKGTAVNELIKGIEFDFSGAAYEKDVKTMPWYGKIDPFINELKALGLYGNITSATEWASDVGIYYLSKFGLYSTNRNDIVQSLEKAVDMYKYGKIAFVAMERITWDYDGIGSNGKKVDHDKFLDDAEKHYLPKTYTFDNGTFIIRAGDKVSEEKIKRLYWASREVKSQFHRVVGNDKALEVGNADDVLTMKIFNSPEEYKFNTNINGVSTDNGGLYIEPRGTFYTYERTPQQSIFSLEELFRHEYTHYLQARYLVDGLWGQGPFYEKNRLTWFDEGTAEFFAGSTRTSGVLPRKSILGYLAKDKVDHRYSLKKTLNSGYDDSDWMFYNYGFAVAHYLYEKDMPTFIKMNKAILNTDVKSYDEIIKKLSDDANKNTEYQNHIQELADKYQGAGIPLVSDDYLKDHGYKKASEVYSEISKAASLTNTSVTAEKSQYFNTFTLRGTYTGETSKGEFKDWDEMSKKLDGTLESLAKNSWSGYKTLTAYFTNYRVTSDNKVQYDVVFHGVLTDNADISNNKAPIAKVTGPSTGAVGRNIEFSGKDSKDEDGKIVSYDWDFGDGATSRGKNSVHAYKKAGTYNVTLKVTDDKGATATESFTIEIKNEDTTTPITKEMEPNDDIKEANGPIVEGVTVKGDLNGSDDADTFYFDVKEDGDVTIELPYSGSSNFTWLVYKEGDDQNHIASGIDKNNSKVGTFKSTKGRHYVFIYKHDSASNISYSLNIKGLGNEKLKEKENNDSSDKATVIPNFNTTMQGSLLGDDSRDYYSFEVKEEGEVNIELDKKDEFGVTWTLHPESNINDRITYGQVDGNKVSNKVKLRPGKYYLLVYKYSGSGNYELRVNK

[5] = target: elastase (Sus scrofa, UniProt P00772); format: biochemical
Chain of elastase (P00772 27-266): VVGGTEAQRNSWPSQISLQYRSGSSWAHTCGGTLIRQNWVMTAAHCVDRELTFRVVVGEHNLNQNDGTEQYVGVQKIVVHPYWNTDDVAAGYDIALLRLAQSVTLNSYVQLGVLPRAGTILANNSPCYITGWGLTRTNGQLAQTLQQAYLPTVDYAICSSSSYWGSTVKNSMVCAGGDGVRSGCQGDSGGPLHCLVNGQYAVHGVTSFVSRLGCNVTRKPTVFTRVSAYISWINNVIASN

[6] = tested on: trypsin; details: for Enzymes that do not cleave 5FAMcollagenPPT: trypsin: general statement
[7] = target: Botulinum neurotoxin B (Clostridium botulinum, UniProt P10844)
[8] = target: Collagenase II (Hathewaya histolytica, UniProt Q46085); format: biochemical, Clostridium histolyticum
[9] = target: chymotrypsin (Bos taurus, UniProt P00766); format: biochemical
[10] = tested on: collagenase; test: Enzymes that can cleave the substrate (Table 2); format: biochemical; details: general statement
[11] = tested on: proteases listed in Table 7 except thermolysin (Collagenase I Liq, Collagenase II Liq, Collagenase NB1, Collagenase I/II, Neutral Protease NB); format: biochemical; details: within the first hour; almost all proteases tested except thermolysin; peptide 10 μM; protease 20 μg/mL; pH 7.5
[12] = target: Thermolysin (Bacillus thermoproteolyticus, UniProt P00800); format: biochemical; details: for effect of zinc on measured RFU (enzymatic cleavage): zinc salt 16.7 μM, presence or absence of CaCl2 4.14 mM, vs control and NaSO4
Chain of Thermolysin (P00800 233-548): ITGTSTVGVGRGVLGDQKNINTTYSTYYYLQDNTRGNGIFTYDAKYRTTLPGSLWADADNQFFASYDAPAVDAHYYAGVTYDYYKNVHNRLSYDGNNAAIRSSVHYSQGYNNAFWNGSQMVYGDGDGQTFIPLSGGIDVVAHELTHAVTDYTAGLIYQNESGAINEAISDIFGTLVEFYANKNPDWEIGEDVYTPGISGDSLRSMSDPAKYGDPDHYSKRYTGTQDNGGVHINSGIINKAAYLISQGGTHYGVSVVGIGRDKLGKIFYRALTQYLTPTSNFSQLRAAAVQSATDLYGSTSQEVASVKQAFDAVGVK

[13] = target: dispase (Paenibacillus polymyxa, UniProt P29148); test: Enzymes that can cleave the substrate (Table 2); format: biochemical; details: general statement
Chain of dispase (P29148 287-590): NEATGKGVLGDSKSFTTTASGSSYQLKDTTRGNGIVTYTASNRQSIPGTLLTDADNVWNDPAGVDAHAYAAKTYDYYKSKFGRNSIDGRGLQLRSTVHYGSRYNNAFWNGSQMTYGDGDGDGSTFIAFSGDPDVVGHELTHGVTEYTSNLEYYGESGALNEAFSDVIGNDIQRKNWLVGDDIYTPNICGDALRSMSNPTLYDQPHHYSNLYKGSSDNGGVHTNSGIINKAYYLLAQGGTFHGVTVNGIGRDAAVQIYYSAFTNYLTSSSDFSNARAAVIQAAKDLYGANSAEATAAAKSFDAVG

[14] = target: Botulinum neurotoxin A (Clostridium botulinum, UniProt P0DPI0)
[15] = with 4.14 mM calcium, substrate 5-80 μM, Example 2
[16] = without calcium, substrate 5-80 μM, Example 2
[17] = enzyme 0.3125-10 μg/mL, substrate 50 μM, Example 3
[18] = general statement, listed as 5FAM collagenPPT
[19] = Example 3 (FIG. 10), thermolysin 17 μg/ml
[20] = with 4.14 mM calcium, thermolysin 17 μg/ml, substrate 5-80 μM, Example 2
[21] = without calcium, thermolysin 17 μg/ml, substrate 5-80 μM, Example 2

## 5-FAM-Ala-Gly-Gly-Pro-Leu-Gly-Pro-Pro-Gly-Pro-Gly-Gly-Lys-[DABCYL]-amide (5FAM-AGGPLGPPGPGGK(DABCYL)-NH2; SMILES CC(C)C[C@H](NC(=O)[C@@H]1CCCN1C(=O)CNC(=O)CNC(=O)[C@H](C)NC(=O)c1ccc2c(c1)C(=O)OC21c2ccc(O)cc2Oc2cc(O)ccc21)C(=O)NCC(=O)N1CCC[C@H]1C(=O)N1CCC[C@H]1C(=O)NCC(=O)N1CCC[C@H]1C(=O)NCC(=O)NCC(=O)N[C@@H](CCCCNC(=O)c1ccc(/N=N/c2ccc(N(C)C)cc2)cc1)C(N)=O) [5FAMcollagenPPT]
[1]; between pH 7.0 and pH 8.0, substrate 20 μM
  effect of pH on enzymatic cleavage activity: significant difference
[1]; with 4.14 mM calcium
  Km: 45.1 µM
  Vmax: 29.28 RFU/min/μg
[1]; without calcium
  Km: 74.1 µM
  Vmax: 20.04 RFU/min/μg
[2]
  Enzymes that can cleave 5FAMcollagenPPT: class I/II collagenase: cleaved
[3]
  solubility: water soluble
[4]; Example 3 (FIG. 10)
  Km: 28.2 µM
  Vmax: 909 RFU/min/μg
[4]; general statement
  Enzymes that can cleave 5FAMcollagenPPT: collagenase I (class I): shown to cleave; also recorded: cleaved
[4]; pH 6.8, 7.0, 7.5, 8.0, substrate 20 μM
  effect of pH on enzymatic cleavage activity: influenced by pH except Collagenase I
[4]; [15]
  Km: 32.9 µM
  Vmax: 1008.158 RFU/min/μg
[4]; [16]
  Km: 38.1 µM
  Vmax: 1704.72 RFU/min/μg
[5]; [17]
  cleavage of substrate by elastase, dose response (FIG. 11): do not cleave
[5]; [18]
  Enzymes that do not cleave 5FAMcollagenPPT: elastase: elastase
[6]; [17]
  cleavage of substrate by trypsin, dose response (FIG. 11): do not cleave
[6]; enzyme 2.5, 5, 10 μg/ml, substrate 50 μM, with and without 4.14 mM CaCl2, compared to thermolysin
  cleavage of substrate by trypsin (FIG. 9): significantly diminished reactivity; also recorded: not cleaved
[6]
  Enzymes that do not cleave 5FAMcollagenPPT: trypsin: not degraded; also recorded: resistant to trypsin; also recorded: resistant to cleavage
[6]; listed as 5FAM collagenPPT
  Enzymes that do not cleave 5FAMcollagenPPT: trypsin: trypsin
[7]
  Enzymes that can cleave 5FAMcollagenPPT: Botulinum neurotoxin B: Botulinum neurotoxin A and B
[8]
  Enzymes that can cleave 5FAMcollagenPPT: collagenase II (class II): shown to cleave; also recorded: cleaved
  Km: 29.7 µM and 24.1 µM and 24.5 µM
  Vmax: 3354.43 RFU/min/μg and 3243.942 RFU/min/μg and 5000 RFU/min/μg
  effect of pH on enzymatic cleavage activity: significantly inhibited
[9]; [17]
  cleavage of substrate by chymotrypsin, dose response (FIG. 11): do not cleave
[9]; [18]
  Enzymes that do not cleave 5FAMcollagenPPT: chymotrypsin: chymotrypsin
[10]
  Enzymes that can cleave 5FAMcollagenPPT: collagenase: collagenase-specific
[11]
  cleavage of substrate over time (FIG. 12): efficient cleavage
[12]; [19]
  Km: 34.6 µM
  Vmax: 24.6 RFU/min/μg
[12]; [17]
  specificity of substrate for thermolysin, dose response (FIG. 11): highly specific
[12]; enzyme 2.5, 5, 10 μg/ml, substrate 50 μM, with and without 4.14 mM CaCl2
  cleavage of substrate by thermolysin (FIG. 9): dose-dependent cleavage; also recorded: cleaved
[12]; general statement
  Enzymes that can cleave 5FAMcollagenPPT: thermolysin: cleaved by thermolysin; also recorded: shown to cleave; also recorded: cleavable by thermolysin
[12]; pH 8.0 compared to all other pH conditions, substrate 20 μM
  effect of pH on enzymatic cleavage activity: significantly inhibited
[12]; [20]
  Km: 24.8 µM
  Vmax: 25.47 RFU/min/μg
[12]; [21]
  Km: 30.4 µM
  Vmax: 23.7 RFU/min/μg
[13]
  Enzymes that can cleave 5FAMcollagenPPT: dispase: cleaved; also recorded: dispase
[14]
  Enzymes that can cleave 5FAMcollagenPPT: Botulinum neurotoxin A: Botulinum neurotoxin A and B

## [Ca+2].[Cl-].[Cl-] [CaCl2, reference compound]
[1]; CaCl2 4.14 mM, Neutral Protease 20 μg/ml, substrate 5FAMcollagenPPT 5-80 μM
  effect of CaCl2 on the cleavage reaction (Michaelis-Menten curves): significantly enhanced
[4]; CaCl2 4.14 mM, Collagenase I 0.45 μg/ml, substrate 5FAMcollagenPPT 5-80 μM
  effect of CaCl2 on the cleavage reaction (Michaelis-Menten curves): significantly enhanced
[8]
  effect of CaCl2 on the cleavage reaction (Michaelis-Menten curves): did not change significantly
[12]; CaCl2 4.14 mM, Thermolysin 17 μg/ml, substrate 5FAMcollagenPPT 5-80 μM
  effect of CaCl2 on the cleavage reaction (Michaelis-Menten curves): did not change significantly

## O=C(O)CN(CCOCCOCCN(CC(=O)O)CC(=O)O)CC(=O)O [EGTA, ethylene glycol-bis(β-aminoethyl ether)-N,N,N′,N′-tetraacetic acid, reference compound]
[8]
  effect of EGTA on RFU levels vs controls: significant differences
[12]; EGTA 25, 50, 100 mM, thermolysin 17 μg/ml, substrate 20 μM
  effect of EGTA on RFU levels vs controls: significant differences

## [Cl-].[Cl-].[Zn+2] [ZnCl2, reference compound]
[1]; substrate 20 μM
  effect of zinc on measured RFU (enzymatic cleavage): significantly decreased
[4]; substrate 20 μM
  effect of zinc on measured RFU (enzymatic cleavage): significantly decreased
[8]
  effect of zinc on measured RFU (enzymatic cleavage): significantly decreased
[12]; substrate 20 μM
  effect of zinc on measured RFU (enzymatic cleavage): significantly decreased

## O=S(=O)([O-])[O-].[Zn+2] [ZnSO4, reference compound]
[1]; substrate 20 μM
  effect of zinc on measured RFU (enzymatic cleavage): significantly decreased
[4]; substrate 20 μM
  effect of zinc on measured RFU (enzymatic cleavage): significantly decreased
[8]
  effect of zinc on measured RFU (enzymatic cleavage): significantly decreased
[12]; substrate 20 μM
  effect of zinc on measured RFU (enzymatic cleavage): significantly decreased
